{"source": "IntAct's records for PubMed 21321230", "parents": {"B1": {"name": "Netrin receptor DCC (Rattus norvegicus (Rat)), Q63155 (parent)", "chain": "MENSLGCVWVPKLAFVLFGASLLSAHLQVTGFQIKPFTSLHFVSEPSDAVTMRGGNVLLNCSAESDRGVPVIKWKKDGLILALGMDDRKQQLPNGSLLIQNILHSRHHKPDEGLYQCEASLGDSGSIISRTAKVMVAGPLRFLSQTESITAFMGDTVLLKCEVIGDPMPTIHWQKNQQDLNPIPGDSRVVVLPSGALQISRLQPGDSGVYRCSARNPASTRTGNEAEVRILSDPGLHRQLYFLQRPSNVIAIEGKDAVLECCVSGYPPPSFTWLRGEEVIQLRSKKYSLLGGSNLLISNVTDDDSGTYTCVVTYKNENISASAELTVLVPPWFLNHPSNLYAYESMDIEFECAVSGKPVPTVNWMKNGDVVIPSDYFQIVGGSNLRILGVVKSDEGFYQCVAENEAGNAQSSAQLIVPKPAIPSSSILPSAPRDVVPVLVSSRFVRLSWRPPAEAKGNIQTFTVFFSREGDNRERALNTTQPGSLQLTVGNLKPEAMYTFRVVAYNEWGPGESSQPIKVATQPELQVPGPVENLHAVSASPTSILITWEPPAYANGPVQGYRLFCTEVSTGKEQNIEVDGLSYKLEGLKKFTEYTLRFLAYNRYGPGVSTDDITVVTLSDVPSAPPQNVSLEVVNSRSIKVSWLPPPSGTQNGFITGYKIRHRKTTRRGEMETLEPNNLWYLFTGLEKGSQYSFQVSAMTVNGTGPPSNWYTAETPENDLDESQVPDQPSSLHVRPQTNCIIMSWTPPLNPNIVVRGYIIGYGVGSPYAETVRVDSKQRYYSIERLESSSHYVISLKAFNNAGEGVPLYESATTRSITDPTDPVDYYPLLDDFPTSGPDVSTPMLPPVGVQAVALTHEAVRVSWADNSVPKNQKTSDVRLYTVRWRTSFSASAKYKSEDTTSLSYTATGLKPNTMYEFSVMVTKNRRSSTWSMTAHATTYEAAPTSAPKDLTVITREGKPRAVIVSWQPPLEANGKITAYILFYTLDKNIPIDDWIMETISGDRLTHQIMDLSLDTMYYFRIQARNAKGVGPLSDPILFRTLKVEHPDKMANDQGRHGDGGYWPVDTNLIDRSTLNEPPIGQMHPPHGSVTPQKNSNLLVITVVTVGVLTVLVVVIVAVICTRRSSAQQRKKRATHSASKRKGSQKDLRPPDLWIHHEEMEMKNIEKPAGTDPAGRGSPIQSCQDLTPVSHSQSESQMGSKSASHSGQDTEEAGSSMSTLERSLAARRATRTKLMIPMEAQSNNPAVVSAIPVPTLESAQYPGILPSPTCGYPHPQFTLRPVPFPTLSVDRGFGAGRTVSEGPTAQQQPMLPPAQPEHPSSEEAPSRTIPTACVRPTHPLRSFANPLLPPPMSAIEPKVPYTPLLSQPGPTLPKTHVKTASLGLAGKARSPLLPVSVPTAPEVSEESHKPTEDPASVYEQDDLSEQMASLEGLMKQLNAITGSAF"}}}
{"variants_of": "B1", "conditions": "with myo10_human MYO10, Q9HD67"}
{"variant": "L1437A", "effect of a mutation on the interaction": "disrupting interaction strength"}
{"variant": "L1433A", "effect of a mutation on the interaction": "disrupting interaction strength"}
